Reference: US11311625B2, “Peptide-based multiple-drug delivery vehicle” (priority 2015, dated 2022)

Experiments:
[1] = Bio-stability and drug release of conjugates 1a-e in murine liver homogenate (LH); type: in vitro ADME, mouse; settings: 37° C.
Description: Preparation of liver homogenate: Mice were sacrificed by CO2 inhalation euthanasia. The livers were removed, minced, washed three times in cold PBS buffer and homogenized in Tris-HCl buffer, pH 7.4 (wt/3 vol.) by dozen strokes in a Potter-Elvehjem glass tissue grinder. The tissue homogenate was centrifuged at 4° C., 14000 rpm, 20 min. The supernatant was carefully collected (liver homogenate) and used immediately or else stored in liquid nitrogen.
Incubation procedure: Incubations were conducted in a 37° C. incubator with 2 ml homogenate (equivalent to 6 mg total protein of mouse liver homogenate) per incubation tube. The samples were prepared by adding 50 μl of stock solution to the homogenate (homogenate mixture) at the beginning of the incubation period. Aliquots of the homogenate mixture were removed after 10, 30, 60, 90, 120 and 180 min and then immediately quenched with 2.5 volumes of ethanol. The samples were centrifuged at 14000 rpm for 15 min. Supernatants were collected, filtered and analyzed by LC-MS.
FIGS. 12A-12E present the results of the bio-stability and drug release profiles assays conducted for conjugates 1a-e in LH. […] Stock solutions were prepared by dissolving 5 mg of the measured conjugate in 0.5 ml DMSO. 50 μl of the stock solution were diluted with 2 ml of fresh mouse liver homogenate and then the mixture was incubated at 37° C. Aliquots were collected at 10, 30, 60, 90 and 120 min, mixed with 2.5 volumes of ethanol and centrifuged (14,000 rpm, 15 min). The supernatants were collected, filtered and analyzed by LC-MS

[2] = tested on: HCT 116, H1299, TRAMP C2 and HEK cell lines; assay: XTT growth inhibition assay, statements over all tested cell lines; type: cell-based, human; settings: 1-10 μM, 24 and 72 h
Description: (§1) The cytotoxicity of the peptide-drug conjugates was determined by measuring the mitochondrial enzyme activity, using a commercial XTT assay kit. All samples contained DMSO at final concentration <0.05%. Cells were cultured in micro wells at 2-4×10^4 cells/ml and incubated for 24 h or 72 h. After the first incubation period the cultures were washed and then given fresh medium containing different concentrations of the tested substances. At the end of the second incubation, XTT reagent was added and the cells were re-incubated for additional 2-4 h. During that time the absorbencies in the wells were measured with a TECAN Infinite M200 plate reader at both 480 and 680 nm. The difference between these measurements was used for calculating the % Growth Inhibition (GI) in test wells compared to two controls: cells that were exposed to the medium and solvent, and those that were exposed to a solvent-free medium. All the tests were done in quadruplicates. Each experiment was conducted twice.
(§2) In order to compare the cytotoxic effects of the conjugates relative to the free drugs, the in vitro cytotoxic effect of the drug bioconjugates 1a-e was determined on SSTR2 overexpressed HCT 116 human colorectal carcinoma, H1299 human non-small cell lung carcinoma and TRAMP C2 human prostate cancer cell lines. The SSTR2 low-expressed HEK-293 (Human Embryonic Kidney 293) cell line was used as a negative control. The study was elaborated over a concentration range of 1-10 μM.
FIGS. 13A-13D present the results of the XTT growth inhibition assay conducted for conjugates 1a-e. Growth inhibition effect of drug-conjugates versus free drugs was studied on three cell lines with an over-expression of SSTR2 (FIG. 13A. HCT 116; FIG. 13B. H1299; FIG. 13C. TRAMP C2) against the SSTR2 low expression cell line (FIG. 13D) HEK as negative control. All the cell lines were seeded and allowed to adhere in the wells, after which they were treated with the different compounds in increasing concentrations for 24 and 72 hr. After the treatment, growth inhibition was measured using the XTT assay: The culture medium was replaced by a new one, and then the XTT reagent was added. The wells were incubated for 2-4 hrs. after which the optical density (OD) was measured at 480 and 680 nm. Percentage of growth inhibition for each compound was calculated by comparison of the treated culture versus a control culture (free of any compound). The result shown for each concentration point represents the mean±standard error calculated from two different experiments. In each experiment the compounds were tested in quadruplicates.

[3] = tested on: TRAMP C2 prostate cancer cell lines; assay: XTT growth inhibition assay, TRAMP C2; type: cell-based, human; settings: compared with corresponding free drugs
Description: as §1, with “The difference between these measurements was used for calculating the % Growth Inhibition (GI) in test wells compared to two controls: cells that were exposed to the medium and solvent, and those that were exposed to a solvent-free medium. All the tests were done in quadruplicates. Each experiment was conducted twice.” left out
In order to compare the cytotoxic effects of the conjugates relative to the free drugs, the in vitro cytotoxic effect of the drug bioconjugates 1a-e was determined on SSTR2 overexpressed HCT 116 human colorectal carcinoma, H1299 human non-small cell lung carcinoma and TRAMP C2 human prostate cancer cell lines. […]
(§3) FIGS. 13A-13D present the results of the XTT growth inhibition assay conducted for conjugates 1a-e. […] After the treatment, growth inhibition was measured using the XTT assay: The culture medium was replaced by a new one, and then the XTT reagent was added. The wells were incubated for 2-4 hrs. after which the optical density (OD) was measured at 480 and 680 nm. […]

[4] = Chemo-stability and drug release of conjugates 1a-e in buffers at pH 2, 5 and 7.4 (LC-MS); type: physicochemical; settings: 37° C.
Description: Incubation procedure: Aqueous stability was determined at pH 2.0 (phosphate buffer), 5.0 (citrate buffer) and 7.4 (PBS buffer). 100 μl of the stock solutions were diluted to 2.5 ml with the desired buffer and then incubated at 37° C. During the incubation period (up to 200 hrs.), aliquots were removed at different time intervals, filtered and analyzed by LC-MS.
Chemo-stability. The chemo-stability tests of the conjugates were performed at three different pH values; a physiological pH of 7.4, the slightly acidic pH 5, mimicking the microenvironment in tumors, and the more acidic pH 2.
FIGS. 11A-11J present the results of the chemo-stability and drug release profiles assays, conducted for conjugates 1a-e at pH 2, 5 and 7.4. Degradation of 1a (FIG. 11A), 1b (FIG. 11C), 1c (FIG. 11E), 1d (FIG. 11G), 1e FIG. 11 (FIG. 11I), and the release of the corresponding drugs: CLB (FIG. 11B), CPT (FIG. 11D), AM (FIG. 11F), ABT-751 (FIG. 11H), and COMB (FIG. 11J). Stock solutions were prepared by dissolving 5 mg of the measured conjugate in 0.5 ml DMSO. 100 μl of the stock solution were diluted to 2.5 ml with the relevant buffer and then incubated at 37° C. Along the incubation period, aliquots were taken at the desired time points and analyzed by LC-MS.

[5] = tested on: H1299 human non-small cell lung carcinoma cells; assay: XTT growth inhibition assay, H1299; type: cell-based; settings: 10 μM, incubation of 72 h
Description: as §1, §2
as §3, with “nm. Percentage of growth inhibition for each compound was calculated by comparison of the treated culture versus a control culture (free of any compound). The result shown for each concentration point represents the mean±standard error calculated from two different experiments.” for “nm.”

**Q.** Which “release of free drug in liver homogenate” value [1] does the source give for `COc1ccc(S(=O)(=O)Nc2cccnc2Nc2ccc(OC(=O)NCCCC(=O)N[C@H](Cc3ccccc3)C(=O)N[C@H]3CSSCCN(CC(N)=O)C(=O)[C@H](Cc4ccccc4)NC(=O)[C@H]([C@@H](C)O)NC(=O)[C@H](CCCCN)NC(=O)[C@@H](Cc4c[nH]c5ccccc45)NC(=O)[C@H](Cc4c[nH]c5ccccc45)NC(=O)[C@H](Cc4ccccc4)NC3=O)cc2)cc1` [conjugate 1d] here?
**A.** could hardly be detected

**Q.** And the “cytotoxicity throughout the study” value [2]?
**A.** targeted but cell selective cytotoxicity

**Q.** And the “cytotoxic effect on TRAMP C2” value [3]?
**A.** most potent targeted therapeutic effect

**Q.** And the degradation of conjugate ([4]; all tested pH values (pH 2, 5, 7.4))?
**A.** rapid degradation

**Q.** And the half-life at 0.4 mg/ml ([4]; buffer, all tested pH values, read-out: average degradation t1/2 (converted))?
**A.** 8 h

**Q.** And the “cytotoxic effect on H1299” value [5]?
**A.** most active
